Changes are numbered by the printed parent chain.
B1: mAb063 (antibody, V domains shown)
VH: EVQLQQSGPELVKPGASVKISCKASGYTFTDYYMNWVKQSHGKSLEWIGHINPNSGSTTYTEKFKDKATLTVDKSSSTAYMELRSLTSDDSAVYYCVRRIGKNWHCDVWGTGTTVTVSS
VL: DIVLTQSPASLAVSLGQRATISCRASESVNFHGTHLMHWYQQKPGQAPKLLIYAASNLDSGVPARFSGSGSETDFTLNIHPVEEEDAATYFCQQSIEDPFTFGSGTYLEIK
B2: murine mAb048 (antibody, V domains shown)
VH: QVQLQQPGADLVKPGASVKLSCKAYGYTFFSYWMHWVRQRPGQGLEWIGMIHPNSGTTNNNEKFKSKATLTVDKSFSTAYMQLSSLTSEDSAVYYCARGYSNYDFDYWGQGTILTVSS
VL: DIKMTQFPSSMYASLGERVTITCKASQDINTYLIWIQQKPGKSPKTLIYRANRLADGVPSRFSGSGSGQDSSLTISSLEHEDMGIYYCLQYDEFPYTFGGGTKLEIK
B3: murine mAb001 (antibody, V domains shown)
VH: QVQLQQPGAELVRPGSSVKLSCKASGYTFTSYWMDWVKQRPGQGLEWIGNIYPSDSKTHYNQKFKDKATLTVDKSSSTAYMQLSSLTSEDSAVYYCARDYYGSIGMDYWGQGTSVTVSS
VL: DIQMTQSPSSLSASLGERVSLTCRASQEISGYLSWLQQKPDGTIKRLIYAASTLDSGVPKRFSGSRSGSDYSLTISSLESEDFADYYCLQYASYPWTFGGGTKLEIK
B4: murine mAb016 (antibody, V domains shown)
VH: B3 VH with K57A, V72I, Y108S
VL: B3 VL with G31D, Y94F
B5: murine mAb117 (antibody, V domains shown)
VH: QAYLQQSGAELVRPGASVKMSCKASGYTFTSYNMHWVKQSPRQGLEWVGVFYLGNGDTSYNEKFKGKATLTVDKSSSTAYMQLSSLTSEDSAVYFCARPGGYANWYFDVWGTGTTVTVSS
VL: DIVMTQSQKFMSTSVGDWVSVTCKASQNVGTEVSWYQQKPGQSPNTLIYSASYRHSGVPDRFTGSGSGTEFTLTITNVQSEDLADYFCQQYNSFPLTFGAGTKLDLK
B6: murine mAb067 (antibody, V domains shown)
VH: QVKLHQSGAELAKPGASVKMSCKASGYTFNSYWIHWVKQRPGQGLEWIGYNNPTSGYSEYNQKFTDKATLSADKSSSTAYMQLSSLTSEDSAVYYCVREYGDLFAYWGQGTLVTVSA
VL: NIVMTQSPKSMSMSVGERVTLSCKASENVGYSVSWFQQKPDQSPKLLIYGASNRYTGVPDRFTGSGSATDFTLTISTVQAEDLADYHCGQIYIYPYTFGGGTKLEIK

Each binder was assayed against biotin-labeled human IL1RAP (human) (UniProt Q9NPH3) (assay: competition ELISA; competitor: capture mAb016 coated; biotin-hIL1RAP).
biotin-labeled human IL1RAP (human), sequence (Q9NPH3 21-367 limits assumed): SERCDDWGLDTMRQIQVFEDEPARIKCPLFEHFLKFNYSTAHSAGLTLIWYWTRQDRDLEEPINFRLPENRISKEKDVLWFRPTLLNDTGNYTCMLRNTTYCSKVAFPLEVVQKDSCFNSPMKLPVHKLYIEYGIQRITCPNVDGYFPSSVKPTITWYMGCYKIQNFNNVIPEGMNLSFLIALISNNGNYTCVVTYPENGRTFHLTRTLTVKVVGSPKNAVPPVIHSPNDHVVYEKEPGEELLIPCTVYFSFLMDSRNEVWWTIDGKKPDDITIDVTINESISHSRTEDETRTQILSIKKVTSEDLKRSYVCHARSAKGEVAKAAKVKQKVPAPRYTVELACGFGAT

Question: B1 was tested. Which % inhibition did it give?
Answer: 97%

Question: With B2 as the binder, how does the % inhibition read?
Answer: 98%

Question: With B3 as the binder, how does the % inhibition read?
Answer: 90%

Question: With B4 as the binder, how does the % inhibition read?
Answer: 94%

Question: How did the % inhibition turn out when B5 was run?
Answer: 98%

Question: With B6 as the binder, how does the % inhibition read?
Answer: 97%

The binders below were run against biotin-labeled human IL1RAP (human) (UniProt Q9NPH3) (assay: competition ELISA; competitor: capture mAb001 coated; biotin-hIL1RAP).

Question: B1 was tested. Which % inhibition did it give?
Answer: 94%

Question: How did the % inhibition turn out when B2 was run?
Answer: 95%

Question: For B3, which % inhibition is on record?
Answer: 93%

Question: B4 was tested. Which % inhibition did it give?
Answer: 95%

Question: Which % inhibition does the source give for B5 here?
Answer: 93%

Question: With B6 as the binder, how does the % inhibition read?
Answer: 94%

What follows are binders tested against biotin-labeled human IL1RAP (human) (UniProt Q9NPH3) (assay: competition ELISA; competitor: capture mAb117 coated; biotin-hIL1RAP).

Question: How did the % inhibition turn out when B1 was run?
Answer: 92%

Question: B2 was tested. Which % inhibition did it give?
Answer: 94%

Question: B3 was tested. Which % inhibition did it give?
Answer: 82%

Question: B4 was tested. Which % inhibition did it give?
Answer: 89%

Question: B5 was tested. Which % inhibition did it give?
Answer: 95%

Question: B6 was tested. Which % inhibition did it give?
Answer: 91%

What follows are binders tested against biotin-labeled human IL1RAP (human) (UniProt Q9NPH3) (assay: competition ELISA; competitor: capture mAb067 coated; biotin-hIL1RAP).

Question: B1 was tested. Which % inhibition did it give?
Answer: 87%

Question: B2 was tested. Which % inhibition did it give?
Answer: 90%

Question: For B3, which % inhibition is on record?
Answer: 76%

Question: Which % inhibition does the source give for B4 here?
Answer: 76%

Question: Which % inhibition does the source give for B5 here?
Answer: 86%

Question: For B6, which % inhibition is on record?
Answer: 87%

What follows are binders tested against biotin-labeled human IL1RAP (human) (UniProt Q9NPH3) (assay: competition ELISA; competitor: capture mAb048 coated; biotin-hIL1RAP).

Question: Which % inhibition does the source give for B1 here?
Answer: 82%

Question: B2 was tested. Which % inhibition did it give?
Answer: 84%

Question: For B3, which % inhibition is on record?
Answer: 68%

Question: B4 was tested. Which % inhibition did it give?
Answer: 78%

Question: Which % inhibition does the source give for B5 here?
Answer: 83%

Question: For B6, which % inhibition is on record?
Answer: 83%

These binders were tested against biotin-labeled human IL1RAP (human) (UniProt Q9NPH3) (assay: competition ELISA; competitor: capture mAb063 coated; biotin-hIL1RAP).

Question: For B1, which % inhibition is on record?
Answer: 96%

Question: For B2, which % inhibition is on record?
Answer: 86%

Question: Which % inhibition does the source give for B3 here?
Answer: 75%

Question: With B4 as the binder, how does the % inhibition read?
Answer: 80%

Question: B5 was tested. Which % inhibition did it give?
Answer: 87%

Question: How did the % inhibition turn out when B6 was run?
Answer: 72%
